Source: patent US20200087408A1 (ANAPTYSBIO, published 2020)

T1: extracellular domain of human IL-36R (human, UniProt Q9HB29 20-335)
T1 construct: extracellular domain; Immobilised on the chip in the BIACORE assay; soluble and bead-coupled in the KINEXA assay; also called soluble human IL-36R extracellular domain
T1 sequence (looked up): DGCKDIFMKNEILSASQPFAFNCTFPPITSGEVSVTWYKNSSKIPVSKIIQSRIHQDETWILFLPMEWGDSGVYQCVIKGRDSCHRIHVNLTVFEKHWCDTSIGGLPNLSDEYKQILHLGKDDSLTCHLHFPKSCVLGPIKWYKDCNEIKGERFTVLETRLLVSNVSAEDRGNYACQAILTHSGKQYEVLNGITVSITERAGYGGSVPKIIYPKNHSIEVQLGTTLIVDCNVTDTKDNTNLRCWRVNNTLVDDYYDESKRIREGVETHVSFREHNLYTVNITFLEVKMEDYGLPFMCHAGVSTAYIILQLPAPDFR

T2: human IL-36R (on cells) (human, UniProt Q9HB29 20-575)
T2 sequence (looked up): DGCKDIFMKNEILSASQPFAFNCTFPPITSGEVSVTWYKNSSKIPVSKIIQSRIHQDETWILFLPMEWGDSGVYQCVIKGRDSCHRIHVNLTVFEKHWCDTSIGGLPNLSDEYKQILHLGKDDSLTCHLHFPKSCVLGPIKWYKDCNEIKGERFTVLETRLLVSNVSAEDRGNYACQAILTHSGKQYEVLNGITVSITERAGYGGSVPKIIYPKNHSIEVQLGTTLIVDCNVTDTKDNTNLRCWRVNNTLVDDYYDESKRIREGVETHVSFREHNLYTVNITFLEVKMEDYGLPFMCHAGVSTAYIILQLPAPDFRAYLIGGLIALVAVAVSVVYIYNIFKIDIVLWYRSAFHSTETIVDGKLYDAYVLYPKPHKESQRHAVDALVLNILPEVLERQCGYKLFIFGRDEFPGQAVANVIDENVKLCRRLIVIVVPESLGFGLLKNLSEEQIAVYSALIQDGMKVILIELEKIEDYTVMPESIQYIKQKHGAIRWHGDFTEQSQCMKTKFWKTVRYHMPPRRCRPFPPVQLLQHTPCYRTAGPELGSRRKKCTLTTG

B1: Hzd 18D4 (APE7247) (antibody, V domains shown)
VH: DVQFQESGPGLVKPSQTLSLTCTVTGYSITADFAWNWIRQPPGKGLEWIGYISYSGDTNYNPSLKSRVTITRDTSKNQFSLKLSSVTAADTAVYFCAIRGPYSFTYWGQGTLVTVSSA
VL: DIQMTQSPSSLSASVGDRVTITCRASQWINNYLNWYQQKPGKAPKLLIYYTSMLHSGVPSRFSPSGSGNDYTFTISSLQPEDIATYYCQQGHTLPWTFGGGTKVEIKRT
B2: Humanized (HzD) 1D9 (APE5281) (antibody, V domains shown)
VH: QVQLMQSGAEVKKPGASVKVSCKASGFTFTSYDINWVRQAPGQRLEWMGWIYPGDSSTKYNEKFKGRVTITADKSANTAYMELASLRSEDTAVYFCTRSFYTMDYWGQGTTVTVSS
VL: DIVMTQSPLSLPVTPGEPASISCRSSKSLLHSNANTYLYWFLQKPGQSPQLLISRMSNLASGVPDRFSGSGSGTDFTLKISRVEAEDVGVYYCMQHLEYPFTFGQGTKLEIK
notes: also called 1D9 Humanized
B3: Hzd 5D3 (APE6155) (antibody, V domains shown)
VH: QVQLVQSGAEVKKPGASVKVSCKASGYTFTNYWMNWVRQAPRQGLEWMGMFHPTGDVTRLNQKFKDRVTMTRDTSTSTVYMELSSLRSEDTAVYYCARTTSMIIGGFAYWGQGTLVTVSS
VL: DIVMTQTPLSLSVTPGQPASISCRSSKSLLHRNAITYFYWYLHKPGQPPQLLIYQMSNLASGVPDRFSGSGSGTDFTLKISRVEAEDVGVYYCAQNLELPLTFGGGTKVEIK
notes: also called APE6917; APE06155
B4: Hzd 18D4 (APE7247) (antibody, V domains shown)
VH: DVQFQESGPGLVKPSQTLSLTCTVTGYSITADFAWNWIRQPPGKGLEWIGYISYSGDTNYNPSLKSRVTITRDTSKNQFSLKLSSVTAADTAVYFCAIRGPYSFTYWGQGTLVTVSS
VL: DIQMTQSPSSLSASVGDRVTITCRASQWINNYLNWYQQKPGKAPKLLIYYTSMLHSGVPSRFSPSGSGNDYTFTISSLQPEDIATYYCQQGHTLPWTFGGGTKVEIKR
notes: also called APE6903; APE07247

Columns and labels:
[1] = target: cynomolgus IL-36R (on cells, allelic variant not stated) (cynomolgus monkey), A0A2K5; test: cell-based or functional assay
[2] = target: cynomolgus monkey IL-36R variant 2 (on cells) (cynomolgus monkey), A0A2K5; test: cell-based or functional assay
[3] = target: cynomolgus monkey IL-36R variant 3 (on cells) (cynomolgus monkey), A0A2K5; test: cell-based or functional assay
[4] = target: T1, extracellular domain of human IL-36R; test: BIACORE T200 SPR, human IL-36R extracellular domain immobilised, antibody injected
Procedure: The binding affinities of various purified antibodies comprising immunoglobulin heavy chain (HC) and light chain (LC) polypeptides described herein were evaluated using BIACORE™ T200 […] assays. BIACORE™ T200 evaluation software (GE Healthcare, Buckinghamshire, United Kingdom) is used to determine antibody-antigen binding kinetics and affinity. The extracellular domain of human IL-36R was immobilized at approximately 100 RU onto a CMS sensor chip (GE Healthcare, Waukesha, Wis.) using amine coupling chemistry. HBS-EP+ buffer (0.01 M HEPES, 0.15 M NaCl, 3 mM EDTA, 0.05% Polysorbate, pH 7.6) (Teknova, Hollister, Calif.) was used to reconstitute each antibody at various concentrations Each antibody concentration was then injected for two to three minutes over immobilized antigen at a flow rate of 30 μL/min, and allowed to dissociate for 15 minutes. The surface was regenerated with 60 μL of 3 M MgCl₂ after each cycle. Association and dissociation kinetic constants (kon and koff) were fit globally using a 1:1 binding model with mass transport with the BIACORE™ T200 evaluation software in order to report on- and off-rates (ka and kd, respectively), as well as affinities (KD).

human IL-36R (on cells) [5] = target: T2, human IL-36R (on cells); test: cell-based or functional assay
[6] = target: cyno IL-36R (BIACORE antigen of Table 4) (cynomolgus monkey); test: BIACORE T200 SPR, cyno IL-36R
human IL-36R (on cells) [7] = target: T2, human IL-36R (on cells); test: cell-based or functional assay; remark: listed apart in the source
human IL-36R (on cells) [8] = target: T2, human IL-36R (on cells); test: cell-based or functional assay; remark: listed apart in the source
[9] = target: T1, extracellular domain of human IL-36R; test: KINEXA 3000 solution-phase equilibrium, soluble human IL-36R extracellular domain
Procedure: The binding affinities of various purified antibodies comprising immunoglobulin heavy chain (HC) and light chain (LC) polypeptides described herein also were evaluated using a KINEXA® 3000 assay (Sapidyne Instruments, Boise, Id.) assays. KINEXA® technology measures the amount of unbound/free antibody molecule in solution phase after incubation with varying concentrations of antigen. Measuring binding events in the solution phase with micro beads for maximized surface area avoids mass transport limitations and mobility effects inherent to methods that measure binding to a solid phase. For each experiment, 50 μg of soluble human or cyno IL-36R extracellular domain was amine-coupled to 50 mg of UltraLink Biosupport beads (Thermo Fisher Scientific, Waltham, Mass.). […] Antibody-antigen solution was then flowed over antigen-coupled beads at a rate of 0.25 mL/min. Free antibody captured by beads was detected using ALEXA FLUOR™ 647-conjugated AffiniPure Donkey Anti-Human IgG (H+L) (Jackson ImmunoResearch, West Grove, Pa.) (500 ng/ml). The KD and/or ABC (active binding concentration) of antibody was obtained from non-linear regression analysis using a one-site homogeneous binding model in the KINEXA™ Pro Software.

[10] = target: cynomolgus monkey IL-36R variant 1 (on cells) (cynomolgus monkey); test: flow cytometry on CHO-K cells co-expressing cynomolgus IL-36R variant 1 and cynomolgus IL-1RAcP
[11] = target: cynomolgus monkey IL-36R variant 1 (on cells) (cynomolgus monkey); test: cell-based or functional assay
human IL-36R (on cells) [12] = target: T2, human IL-36R (on cells); test: flow cytometry on CHO-K cells co-expressing human IL-36R and human IL-1RAcP
Procedure: The binding of antibodies to CHO-K cells stably co-expressing human IL-36R and human IL-1RAcP was examined. Cynomolgus IL-36R allelic variation was examined by Sanger sequencing, and four distinct allelic variants were identified within cynomolgus monkey populations. The binding of antibodies to CHO-K cells stably co-expressing cynomolgus monkey IL-36R variant 1 and cynomolgus monkey IL-1RAcP was also examined for APE6155 and APE7247. Each antibody was incubated with CHO cells harvested using accutase, washed, and seeded at 500,000 cells per well. Cells were incubated with antibodies at concentrations ranging from 33 nM-16 pM for 30 minutes at 4° C., and washed three times with FACS staining buffer. Cells were spun and aspirated, and then the incubated with 100 μl paraformaldehyde for 10 minutes at room temperature. Cells were again washed, aspirated, and stained with 100 μL of anti-human IgG Alexa 647 for 20 minutes at 4° C. Cells were resuspended in 100 μL FACS analysis buffer before analysis on the FACS Array (BD Biosciences).

Sequence of cynomolgus IL-36R (on cells, allelic variant not stated) (cynomolgus monkey), A0A2K5 (chain, as listed by the source mutant): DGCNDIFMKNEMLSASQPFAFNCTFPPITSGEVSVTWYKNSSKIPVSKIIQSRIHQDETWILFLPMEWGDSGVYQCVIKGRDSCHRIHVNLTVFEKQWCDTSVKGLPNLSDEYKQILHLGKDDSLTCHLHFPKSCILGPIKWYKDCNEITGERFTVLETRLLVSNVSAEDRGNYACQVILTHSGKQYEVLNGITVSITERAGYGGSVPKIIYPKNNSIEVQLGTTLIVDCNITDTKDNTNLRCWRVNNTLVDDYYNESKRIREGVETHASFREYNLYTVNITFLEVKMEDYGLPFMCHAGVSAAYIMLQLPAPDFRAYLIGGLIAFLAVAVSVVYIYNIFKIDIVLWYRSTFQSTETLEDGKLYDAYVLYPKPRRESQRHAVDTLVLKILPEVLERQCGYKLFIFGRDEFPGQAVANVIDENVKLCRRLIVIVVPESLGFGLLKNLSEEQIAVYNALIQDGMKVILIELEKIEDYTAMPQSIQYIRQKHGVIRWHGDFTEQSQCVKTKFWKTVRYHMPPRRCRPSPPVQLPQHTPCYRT
Sequence of cynomolgus monkey IL-36R variant 3 (on cells) (cynomolgus monkey), A0A2K5 (chain, as listed by the source mutant): as above
Sequence of cynomolgus monkey IL-36R variant 2 (on cells) (cynomolgus monkey), A0A2K5 (chain, as listed by the source mutant): as above

Row | Binder | EC50 (nM), HEK cyno IL-36R IL-8 luciferase reporter assay, 300 ng/ml cIL-36γ [1] | EC50 (nM), IL-8 secretion by primary cynomolgus keratinocytes, 10 ng/ml cyno IL-36β [1] | EC50 (nM), IL-8 secretion by primary cynomolgus keratinocytes, 50 ng/ml cyno IL-36α [1] | EC50 (nM), IL-8 secretion by primary cynomolgus keratinocytes, 250 ng/ml cyno IL-36γ [1] | EC50 (nM), IL-8 luciferase reporter assay, 300 ng/ml IL-36γ (Cyno IL-36R variant 2) [2] | EC50 (nM), IL-8 luciferase reporter assay, 300 ng/ml IL-36γ (Cyno IL-36R variant 3) [3] | Kd [4] | EC50 (nM), IL-8 secretion by primary human keratinocytes, 1 ng/ml human IL-36β (human IL-36R (on cells) [5]) | EC50 (nM), IL-8 secretion by primary human keratinocytes, 10 ng/ml human IL-36α (human IL-36R (on cells) [5]) | EC50 (nM), IL-8 secretion by primary human keratinocytes, 100 ng/ml human IL-36γ (human IL-36R (on cells) [5]) | Kd [6] | EC50 (nM), HEK human IL-36R IL-8 luciferase reporter assay, 50 ng/ml hIL-36α (human IL-36R (on cells) [7]) | EC50 (nM), HEK human IL-36R IL-8 luciferase reporter assay, 200 ng/ml hIL-36γ (human IL-36R (on cells) [7]) | EC50 (nM), IL-8 secretion by primary human monocytes, human IL-36α (human IL-36R (on cells) [8]) | EC50 (nM), IL-8 secretion by primary human monocytes, human IL-36β (human IL-36R (on cells) [8]) | EC50 (nM), IL-8 secretion by primary human monocytes, human IL-36γ (human IL-36R (on cells) [8]) | Kd [9] | EC50 [10] | EC50 (nM), IL-8 luciferase reporter assay, 300 ng/ml IL-36γ (Cyno IL-36R variant 1) [11] | EC50 (human IL-36R (on cells) [12]) | other results
1 | B1 | 0.24 nM | 1.8 nM | 2.3 nM | 5.6 nM | 0.065 nM | 0.42 nM |  |  |  |  |  |  |  |  |  |  |  |  |  |  | 
2 | B2 |  |  |  |  |  |  | 0.077 nM | 0.053 nM | 0.047 nM | 0.04 nM | 0.126 nM | 0.17 nM | 0.12 nM | 0.035 nM | 0.033 nM | 0.027 nM | 0.008 nM |  |  |  | 
3 | B3 | 0.31 nM | 1.4 nM | 1.1 nM | 1.1 nM | 0.043 nM | 0.21 nM | 0.071 nM | 0.227 nM | 0.125 nM | 0.093 nM |  | 0.23 nM | 0.4 nM | 0.088 nM | 0.117 nM | 0.078 nM | 0.169 nM | 2.4 nM | 0.042 nM | 1.5 nM | EC50 (nM), HEK cyno IL-36R IL-8 luciferase reporter assay, 2 µg/ml cIL-36α [1]: 0.08 nM; EC50 (nM), HEK cyno IL-36R IL-8 luciferase reporter assay, 10 µg/ml cIL-36β [1]: 0.13 nM; EC50 (nM), IL-8 secretion by primary cynomolgus PBMCs, 10 ng/ml cyno IL-36β [1]: 1.5 nM; EC50 (nM), IL-8 secretion by primary cynomolgus PBMCs, 50 ng/ml cyno IL-36α [1]: 1.2 nM; EC50 (nM), IL-8 secretion by primary cynomolgus PBMCs, 250 ng/ml cyno IL-36γ [1]: 0.89 nM; EC50 (nM), HEK human IL-36R IL-8 luciferase reporter assay, 20 ng/ml hIL-36β (human IL-36R (on cells) [7]): 0.22 nM
4 | B4 |  |  |  |  |  |  | < 0.02 nM | 0.336 nM | 0.142 nM | 0.074 nM | < 0.02 nM | 0.066 nM | 0.104 nM |  |  |  | 0.1 nM | 3.3 nM | 0.079 nM | 2.8 nM | EC50 (nM), HEK human IL-36R IL-8 luciferase reporter assay, 20 ng/ml hIL-36β (human IL-36R (on cells) [7]): 0.114 nM
